According to paper PMC4434323:

What follows are sequences tested against T1, nhr-66 (T09A12.4) (Caenorhabditis elegans) (UniProt H2KYJ8).
T1 sequence: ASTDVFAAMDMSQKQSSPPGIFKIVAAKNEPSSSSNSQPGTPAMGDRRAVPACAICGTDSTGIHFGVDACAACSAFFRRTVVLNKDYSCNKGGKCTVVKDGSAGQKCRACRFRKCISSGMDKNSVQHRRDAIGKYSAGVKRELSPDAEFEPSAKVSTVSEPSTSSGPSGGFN

| Sequence | binding signal (PBM E-score (-0.5 to 0.5)) |
| --- | --- |
| CAACTACA (double strand) [8-mer CAACTACA] | 0.484 |
| ACTACACG (double strand) [8-mer ACTACACG] | 0.481 |
| AATGTAGT (double strand) [8-mer AATGTAGT] | 0.48 |
| AAACTACA (double strand) [8-mer AAACTACA] | 0.484 |
| ACTACACT (double strand) [8-mer ACTACACT] | 0.487 |
| ACTACAAC (double strand) [8-mer ACTACAAC] | 0.482 |
| AACTACAC (double strand) [8-mer AACTACAC] | 0.486 |
| ACTACACA (double strand) [8-mer ACTACACA] | 0.484 |

These sequences were tested against T2, odr-7 (T18D3.2) (Caenorhabditis elegans) (UniProt P41933).
T2 sequence: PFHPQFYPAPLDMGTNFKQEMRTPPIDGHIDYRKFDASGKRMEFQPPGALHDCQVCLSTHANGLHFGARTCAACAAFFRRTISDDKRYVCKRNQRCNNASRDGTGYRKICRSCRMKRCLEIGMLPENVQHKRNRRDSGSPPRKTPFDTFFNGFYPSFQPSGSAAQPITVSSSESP

| Sequence | binding signal (PBM E-score (-0.5 to 0.5)) |
| --- | --- |
| TACAAATA (double strand) [8-mer TACAAATA] | 0.461 |
| AATTGTAG (double strand) [8-mer AATTGTAG] | 0.489 |
| ATTGTAGC (double strand) [8-mer ATTGTAGC] | 0.487 |
| AATTGTAC (double strand) [8-mer AATTGTAC] | 0.46 |
| ATTTGTAG (double strand) [8-mer ATTTGTAG] | 0.479 |

The sequences below were run against nhr-34 (F58G6.5) (Caenorhabditis elegans) (UniProt Q21006).
Chain of nhr-34 (F58G6.5) (Caenorhabditis elegans) (Q21006 99-268): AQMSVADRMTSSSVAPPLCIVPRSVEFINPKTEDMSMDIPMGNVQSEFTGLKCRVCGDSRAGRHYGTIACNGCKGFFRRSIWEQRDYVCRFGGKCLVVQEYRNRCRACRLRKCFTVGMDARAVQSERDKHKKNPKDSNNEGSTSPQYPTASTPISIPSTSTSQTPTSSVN

| Sequence | binding signal (PBM E-score (-0.5 to 0.5)) |
| --- | --- |
| AGAGATCA (double strand) [8-mer AGAGATCA] | 0.488 |

What follows are sequences tested against T3, nhr-3 (H01A20.1) (Caenorhabditis elegans) (UniProt Q9XTJ4).
T3 sequence: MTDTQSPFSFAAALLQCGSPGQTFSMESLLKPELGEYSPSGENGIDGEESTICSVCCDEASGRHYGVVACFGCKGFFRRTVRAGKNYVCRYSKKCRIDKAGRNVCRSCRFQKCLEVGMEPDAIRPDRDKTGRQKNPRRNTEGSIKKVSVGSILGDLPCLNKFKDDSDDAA

| Sequence | binding signal (PBM E-score (-0.5 to 0.5)) |
| --- | --- |
| AGAGATCA (double strand) [8-mer AGAGATCA] | 0.462 |

Each sequence was assayed against T4, nhr-1 (R09G11.2) (Caenorhabditis elegans) (UniProt Q21878).
T4 sequence: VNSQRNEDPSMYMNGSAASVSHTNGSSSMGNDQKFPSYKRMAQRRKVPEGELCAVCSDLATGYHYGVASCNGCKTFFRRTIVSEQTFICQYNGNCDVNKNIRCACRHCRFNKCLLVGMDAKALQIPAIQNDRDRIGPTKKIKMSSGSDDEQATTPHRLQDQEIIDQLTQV

| Sequence | binding signal (PBM E-score (-0.5 to 0.5)) |
| --- | --- |
| ACTGATCA (double strand) [8-mer ACTGATCA] | 0.478 |
| ATTGATCA (double strand) [8-mer ATTGATCA] | 0.479 |
| GTGATCAC (double strand) [8-mer GTGATCAC] | 0.489 |
| GATGATCA (double strand) [8-mer GATGATCA] | 0.488 |
| ATGATCAT (double strand) [8-mer ATGATCAT] | 0.476 |
| GTGATCAA (double strand) [8-mer GTGATCAA] | 0.472 |
| AGGGATCA (double strand) [8-mer AGGGATCA] | 0.479 |
| AGAGATCA (double strand) [8-mer AGAGATCA] | 0.474 |
| GTTGATCA (double strand) [8-mer GTTGATCA] | 0.477 |

These sequences were tested on T5, nhr-216 (T09D3.4) (Caenorhabditis elegans).
T5 sequence: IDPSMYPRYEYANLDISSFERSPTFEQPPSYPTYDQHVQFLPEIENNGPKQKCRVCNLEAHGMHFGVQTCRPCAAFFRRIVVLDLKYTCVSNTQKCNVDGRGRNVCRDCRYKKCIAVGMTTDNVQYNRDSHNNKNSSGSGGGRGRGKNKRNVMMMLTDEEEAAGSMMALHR

| Sequence | binding signal (PBM E-score (-0.5 to 0.5)) |
| --- | --- |
| CGTCAGAA (double strand) [8-mer CGTCAGAA] | 0.493 |
| AGTCAGAA (double strand) [8-mer AGTCAGAA] | 0.498 |
| ATCAGAAG (double strand) [8-mer ATCAGAAG] | 0.494 |
| GTCAGAAA (double strand) [8-mer GTCAGAAA] | 0.496 |
| ATCAGAAC (double strand) [8-mer ATCAGAAC] | 0.494 |
| GGTCAGAA (double strand) [8-mer GGTCAGAA] | 0.498 |
| TCTGACCA (double strand) [8-mer TCTGACCA] | 0.491 |
| CTTCTGAC (double strand) [8-mer CTTCTGAC] | 0.498 |
| AAGTCAGA (double strand) [8-mer AAGTCAGA] | 0.493 |
| GTCAGAAC (double strand) [8-mer GTCAGAAC] | 0.498 |
| TGTCAGAA (double strand) [8-mer TGTCAGAA] | 0.496 |
| AATCAGAA (double strand) [8-mer AATCAGAA] | 0.497 |
| GGACAGAA (double strand) [8-mer GGACAGAA] | 0.493 |
| ATTCTGAC (double strand) [8-mer ATTCTGAC] | 0.495 |
| GATCAGAA (double strand) [8-mer GATCAGAA] | 0.497 |

What follows are sequences tested against T6, nhr-46 (C45E5.6) (Caenorhabditis elegans) (UniProt Q95QR2).
T6 sequence: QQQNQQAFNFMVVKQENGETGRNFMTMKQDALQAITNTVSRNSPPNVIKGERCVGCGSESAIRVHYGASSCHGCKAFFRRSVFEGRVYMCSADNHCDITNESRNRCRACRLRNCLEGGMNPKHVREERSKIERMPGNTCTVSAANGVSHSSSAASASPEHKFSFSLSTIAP

| Sequence | binding signal (PBM E-score (-0.5 to 0.5)) |
| --- | --- |
| AGAGATCA (double strand) [8-mer AGAGATCA] | 0.478 |

These sequences were tested against T7, nhr-204 (R02C2.4) (Caenorhabditis elegans) (UniProt O44543).
T7 sequence: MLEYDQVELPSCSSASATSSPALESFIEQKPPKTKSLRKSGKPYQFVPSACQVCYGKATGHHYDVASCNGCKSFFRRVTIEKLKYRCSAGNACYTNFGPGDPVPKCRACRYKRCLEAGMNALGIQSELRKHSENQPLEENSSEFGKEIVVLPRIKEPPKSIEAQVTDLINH

| Sequence | binding signal (PBM E-score (-0.5 to 0.5)) |
| --- | --- |
| ACTGATCA (double strand) [8-mer ACTGATCA] | 0.477 |
| ATTGATCA (double strand) [8-mer ATTGATCA] | 0.489 |
| GTGATCAA (double strand) [8-mer GTGATCAA] | 0.478 |
| GTTGATCA (double strand) [8-mer GTTGATCA] | 0.482 |
